B1: ZNF449 (parent)
chain: TLHQRTHTEERPFKCNYCGKSFRQ
B2: VTI1B (parent)
chain: NKLLLSIIILLELAILGGLVYYKF

Variants of: B1
Assay: protein stability index of a GFP-peptide fusion (GPS, HEK-293T) (PSI 1-6); higher = more stable
Settings: c terminus: a fixed tail appended
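Further: lentivirally expressed fusions sorted by FACS into six bins by GFP to DsRed ratio, PSI derived from sequencing read proportions per bin multiplied by bin number.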

Protein stability index: each site, then its substitutions
Q24: M 2.77; S 3.49; P 2.87; E 2.88; G 2.62; L 2.36; W 2.12; D 2.24; F 2.56; Y 3.2; A 2.55; T 2.75; C 1.84; R 1.67; H 2.12; N 2.27; V 1.75; I 1.68
S21: V 2.29; W 2.29; T 2.91; R 2.38
F22: D 3.12; T 2.49; G 2.35; E 3.02; H 3.05; P 3.03; M 2.28; N 3.51; C 3.22; V 3.59; I 2.02; Q 2.88; S 2.85; Y 2.35; R 1.48; A 3.02; K 3.37; L 1.82; W 1.74
R23: I 3.2; N 2.35; T 2.7; K 2.97; Q 2.16; G 2.27; P 2.58; E 3.53; M 2.8; L 2.4; S 2.67; H 2.79; F 2.21; A 2.69; V 2.15; Y 2.72; W 2.29; D 3; C 4.7

Variants of: B2
Assay: as above
Settings: c terminus: a fixed tail appended

Protein stability index: each site, then its substitutions
L13: A 2.4; E 2.44; D 2.7; Y 2.83; P 3.15; G 3.93; V 1.79; F 3.1; Q 2.92; R 3.24; T 3.42; N 2.58; I 3.27; M 3.13; H 3.39; W 3.72; C 1.85; S 3.71
I8: H 4.21; L 3.04; Y 3.31; E 2.35; D 3.18; M 2.81; A 3.36; S 3.02; R 1.95; T 3.41; W 2.33; N 3.11; V 2.56; F 2.03; K 2.87; P 2.61; G 1.21; Q 3.49
K2: Q 4.47; H 2.48; V 3.38; M 2.6; W 2.8; N 1.92; P 2.43; Y 3.38; S 2.46; R 2.99; T 2.66; I 3.89; E 2; A 3.74; D 2.35; F 3.52; C 2.17
L3: V 3.79; T 2.98; H 3.76; D 3.73; A 2.92; S 1.78; I 2.78; C 2.54; G 2.83; Q 2.99; K 1.85; N 3.2; R 3.98; W 2.79; E 2.84; P 3.24; Y 3.55; M 2.52
I15: K 3.29; G 3.52; R 2.12; M 3.49; Q 2.44; F 2.06; W 2.18; V 4.17; N 1.43; S 3; E 2.52; P 3.21; C 2.38; L 2.62; D 3.64; T 2.54; H 2.83
I7: F 2.31; R 3.87; T 3.78; G 3.04; N 2.1; L 3.54; Y 2.74; E 1.86; Q 2.44; W 3.61; C 2.9; A 2.32; D 2.84; H 2.65; V 2.32; K 2.41; M 3.23
L16: F 2.62; M 3.6; I 1.99; N 2.9; G 3.79; A 4.1; H 4.31; D 2.8; C 2.13; K 3.6
L5: C 2.61; F 2.55; Q 4.28; P 2.39; R 1.8; D 2.64; V 2.08; Y 3.05; H 3.13; K 2.14; W 1.86; E 4.19; I 3.01; T 3.88; N 3.71; A 2.22
L10: M 2.86; C 3.11; F 2.6; V 3.92; A 2.44; R 2.63; P 3.62; T 1.93; H 3.04; Q 1.98; I 2.55; K 3.36; D 2.71; G 2.46; Y 2.8; E 3.16; S 4.51; N 2.09; W 3.4
I9: L 2.16; D 3.1; Y 2.38; M 3.54; G 2.8; F 2.03; S 4.04; V 3.42; C 2.97; N 3.49; R 3.19; Q 3.18; H 2.47; E 2.85; T 2.58; W 1.51; P 3.12; K 3.22
N1: R 2.99; M 2.75; W 3.84; L 2.74; Y 2.36; H 3.67; Q 2.12; K 1.85; S 2.63; T 3.56; V 2.54; F 2.82; G 3.29; I 2.97; P 1.77; A 3.04; C 3.66; D 3; E 4.24
L4: D 3.75; T 1.51; Y 2.34; E 2.47; F 3.51; N 2.28; A 3.17; K 2.39; I 2.94; C 2.35; S 2.38; V 2.82; Q 3.91; M 1.8; G 2.29; W 2.25; H 3.22
E12: V 2.85; S 2.68; G 1.55; Y 2.01; I 2.73; A 2.13; L 2.33; P 2.64; D 2.99; K 2.66; M 2.4; N 1.44; T 2.87; R 2.18; F 2.17; C 2.57; Q 3.45; W 1.82; H 2.64
L11: C 2.36; E 3.84; S 3.88; R 3.68; M 3.36; H 4.16; P 2.43; W 3.2; Q 3.26; D 3.12; F 2.39; G 2.94; K 2.59; V 1.49; T 2.53; N 3.97
A14: E 3.15; C 2.98; M 2.43; R 3.34; S 2.35; P 2.64; Y 3.19; Q 3.3; K 2.48; W 3.4; H 3.82; F 3.19; G 3.17; N 2.81; I 1.84; L 3.61
S6: K 2.63; I 1.85; Y 2.76; L 2.02; V 2.5; W 2.11; M 2.86; T 3.52; H 2.51; E 3.51; R 3.55; C 3.11; Q 3.32; P 3.12; N 2.47; A 3.54; F 2.67; D 2.42; G 1.88

— the supplement of paper PMC10567573
